± gives the standard deviation of the averaged measurements.
How the values were obtained:
[1] = test system: VchCAST RNA-guided transposition machinery (E. coli BL21(DE3) host, lacZ target); test: relative integration efficiency (T-LR orientation) vs wild-type transposon end (log2 (normalized fold change)); transposon end mutated: right end (5 bp flank + 75 bp right end); higher = more efficient transposition
Summary of the method: (§1)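 Pools of 1549 left-end or 1849 right-end barcoded transposon variants were cloned into a pUC57 mini-transposon donor and co-transformed into E. coli BL21(DE3) with a T7-driven effector plasmid carrying a CRISPR array, tniQ-cas8-cas7-cas6 and tnsA-tnsB-tnsC. Plating used 0.1 mM IPTG at 37°C for 18 h, and input plasmids and genomic integration junctions were PCR-amplified for Illumina sequencing, with two biological output replicates and four reference barcodes. Relative integration efficiency is the log-transformed fold change of output over input barcode abundance, normalised to the reference barcodes.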

[2] = test system: VchCAST RNA-guided transposition machinery (E. coli BL21(DE3) host, lacZ target); test: relative integration efficiency (T-RL orientation) vs wild-type transposon end (log2 (normalized fold change)); transposon end mutated: right end (5 bp flank + 75 bp right end); higher = more efficient transposition
Summary of the method: as §1

Sequence | relative integration efficiency (log2) [1] | relative integration efficiency (log2) [2]
ACATTTGTTGATACAACCTATTAATGATAATTACACCCATAAATTGATAATTATCACACCCATAAATTGATATTGCCTCTGATCATAGTCAGACCAACATTGCTACGACCCGTATTCGCACCGACAC | -1.46 ± 0.16 | -0.905 ± 0.052
ACATTTGTTGATACAACCTTAAAATGATAATTACACCCTTAAATTGATAATTATCACACCCTTAAATTGATATTGCCTCTGATCATAGTCAGACCAACATTGCTACGACCCGTATTCGCACCGACAC | -0.505 ± 0.42 | -1.34 ± 0.22
ACATTTGTTGATACAACGATAAAATGATAATTACACCGATAAATTGATAATTATCACACCGATAAATTGATATTGCCTCTGATCATAGTCAGACCAACATTGCTACGACCCGTATTCGCACCGACAC | 0.086 ± 0.12 | -0.127 ± 0.12
ACATTTGTTGATACAACGTATAAATGATAATTACACCCATAAATTGATAATTATCACACCCATAAATTGATATTGCCTCTGATCATAGTCAGACCAACATTGCTACGACCCGTATTCGCACCGACAC | -2.43 ± 0.46 | -1.91 ± 0.13
ACATTTGTTGATACAACGTTAAAATGATAATTACACCCATAAATTGATAATTATCACACCCATAAATTGATATTGCCTCTGATCATAGTCAGACCAACATTGCTACGACCCGTATTCGCACCGACAC | -1.02 ± 0.3 | -0.928 ± 0.01
ACATTTGTTGATACAAGCATAAAATGATAATTACACGCATAAATTGATAATTATCACACGCATAAATTGATATTGCCTCTGATCATAGTCAGACCAACATTGCTACGACCCGTATTCGCACCGACAC | -0.218 ± 0.08 | -0.3912 ± 0.0011
ACATTTGTTGATACAAGGATAAAATGATAATTACACCCATAAATTGATAATTATCACACCCATAAATTGATATTGCCTCTGATCATAGTCAGACCAACATTGCTACGACCCGTATTCGCACCGACAC | -0.87 ± 0.12 | -0.223 ± 0.044
ACATTTGTTGATACAAGGTAAAAATGATAATTACACCCATAAATTGATAATTATCACACCCATAAATTGATATTGCCTCTGATCATAGTCAGACCAACATTGCTACGACCCGTATTCGCACCGACAC | -2.67 ± 0.22 | -2.26 ± 0.11
ACATTTGTTGATACACAACGCCCCGTCGCCGGCACAAACGCCCGGTCGCCGGCGACACAAACGCCCGGTCGCGGTAAGAGGATCATAGTCAGACCAACATTGCTACGACCCGTATTCGCACCGACAC | -5.17 ± 0.85 | -7.89 ± 0.53
ACATTTGTTGATACACAACTAAAATGATAATTACACCCATAAATTGATAATTATCACACCCATAAATTGATATTGCCTCTGATCATAGTCAGACCAACATTGCTACGACCCGTATTCGCACCGACAC | -3.43 ± 1.4 | -3.13 ± 0.19
ACATTTGTTGATACACACATAAAATGATAATTACACCCATAAATTGATAATTATCACACCCATAAATTGATATTGCCTCTGATCATAGTCAGACCAACATTGCTACGACCCGTATTCGCACCGACAC | -0.763 ± 0.33 | -0.5621 ± 0.0046
ACATTTGTTGATACACCCATAAAATGATAATTACAACCATAAATTGATAATTATCACAACCATAAATTGATATTGCCTCTGATCATAGTCAGACCAACATTGCTACGACCCGTATTCGCACCGACAC | -0.642 ± 0.019 | -0.707 ± 0.2
ACATTTGTTGATACACCCATAAATTGATAATTACAACCATAAAATGATAATTATCACAACCATAAAATGATAATTACTCTGATCATAGTCAGACCAACATTGCTACGACCCGTATTCGCACCGACAC | -0.939 ± 0.36 | -0.638 ± 0.31
ACATTTGTTGATACACCCATAAATTGATAATTACAACCATAAAATGATAATTATCACAACCATAAAGTGATATTTACTCTGATCATAGTCAGACCAACATTGCTACGACCCGTATTCGCACCGACAC | -0.912 ± 0.79 | -0.736 ± 0.32
ACATTTGTTGATACACCCATAAATTGATAATTACAACCATAAAATGATAATTATCACAACCATAAGTTGATATTTTCTCTGATCATAGTCAGACCAACATTGCTACGACCCGTATTCGCACCGACAC | -0.36 ± 0.66 | -0.795 ± 0.13
ACATTTGTTGATACACCCATAAATTGATAATTACAACCATAAAATGATAATTATCACAACCATATATTGATATCTCCTCTGATCATAGTCAGACCAACATTGCTACGACCCGTATTCGCACCGACAC | -0.397 ± 0.063 | -0.596 ± 0.35
ACATTTGTTGATACACCCATAAATTGATAATTACAACCATAAAATGATAATTATCACACCCATAAATTGATAATTACTCTGATCATAGTCAGACCAACATTGCTACGACCCGTATTCGCACCGACAC | -0.234 ± 0.37 | -0.421 ± 0.15
ACATTTGTTGATACACCCATAAATTGATAATTACAACCATAAAATGATAATTATCACACCCATAAATTGATATTGCCTCTGATCATAGTCAGACCAACATTGCTACGACCCGTATTCGCACCGACAC | -0.673 ± 0.45 | -0.475 ± 0.089

Sequence | relative integration efficiency (log2) [1] | relative integration efficiency (log2) [2]
ACATTTGTTGATACACCCATAAATTGATAATTACAACCATAAAATGATAATTATCAGTGGGTATTTAACTATAACGCTCTGATCATAGTCAGACCAACATTGCTACGACCCGTATTCGCACCGACAC | 2.58 ± 0.045 | -0.217 ± 0.012
ACATTTGTTGATACACCCATAAATTGATAATTACAACCATAAAGTGATATTTATCACAACCATAAAATGATAATTACTCTGATCATAGTCAGACCAACATTGCTACGACCCGTATTCGCACCGACAC | -0.432 ± 0.17 | -0.58 ± 0.22
ACATTTGTTGATACACCCATAAATTGATAATTACAACCATAAAGTGATATTTATCACAACCATAAAGTGATATTTACTCTGATCATAGTCAGACCAACATTGCTACGACCCGTATTCGCACCGACAC | -0.828 ± 0.015 | -0.483 ± 0.29
ACATTTGTTGATACACCCATAAATTGATAATTACAACCATAAAGTGATATTTATCACAACCATAAGTTGATATTTTCTCTGATCATAGTCAGACCAACATTGCTACGACCCGTATTCGCACCGACAC | -0.743 ± 0.17 | -0.418 ± 0.21
ACATTTGTTGATACACCCATAAATTGATAATTACAACCATAAAGTGATATTTATCACAACCATATATTGATATCTCCTCTGATCATAGTCAGACCAACATTGCTACGACCCGTATTCGCACCGACAC | 0.318 ± 0.42 | -0.0337 ± 0.3
ACATTTGTTGATACACCCATAAATTGATAATTACAACCATAAAGTGATATTTATCACACCCATAAATTGATAATTACTCTGATCATAGTCAGACCAACATTGCTACGACCCGTATTCGCACCGACAC | -0.96 ± 0.16 | -0.494 ± 0.16
ACATTTGTTGATACACCCATAAATTGATAATTACAACCATAAAGTGATATTTATCACACCCATAAATTGATATTGCCTCTGATCATAGTCAGACCAACATTGCTACGACCCGTATTCGCACCGACAC | -0.466 ± 0.18 | -0.477 ± 0.26
ACATTTGTTGATACACCCATAAATTGATAATTACAACCATAAAGTGATATTTATCAGTGGGTATTTAACTATAACGCTCTGATCATAGTCAGACCAACATTGCTACGACCCGTATTCGCACCGACAC | 2.08 ± 0.1 | -0.744 ± 0.28
ACATTTGTTGATACACCCATAAATTGATAATTACAACCATAAGTTGATATTTTTCACAACCATAAAATGATAATTACTCTGATCATAGTCAGACCAACATTGCTACGACCCGTATTCGCACCGACAC | -0.748 ± 0.17 | -0.644 ± 0.31
ACATTTGTTGATACACCCATAAATTGATAATTACAACCATAAGTTGATATTTTTCACAACCATAAAGTGATATTTACTCTGATCATAGTCAGACCAACATTGCTACGACCCGTATTCGCACCGACAC | -0.228 ± 0.18 | -0.613 ± 0.13
ACATTTGTTGATACACCCATAAATTGATAATTACAACCATAAGTTGATATTTTTCACAACCATAAGTTGATATTTTCTCTGATCATAGTCAGACCAACATTGCTACGACCCGTATTCGCACCGACAC | -0.275 ± 0.18 | -0.543 ± 0.19
ACATTTGTTGATACACCCATAAATTGATAATTACAACCATAAGTTGATATTTTTCACAACCATATATTGATATCTCCTCTGATCATAGTCAGACCAACATTGCTACGACCCGTATTCGCACCGACAC | -0.393 ± 0.46 | -0.626 ± 0.19
ACATTTGTTGATACACCCATAAATTGATAATTACAACCATAAGTTGATATTTTTCACACCCATAAATTGATAATTACTCTGATCATAGTCAGACCAACATTGCTACGACCCGTATTCGCACCGACAC | 0.055 ± 0.036 | -0.622 ± 0.16
ACATTTGTTGATACACCCATAAATTGATAATTACAACCATAAGTTGATATTTTTCACACCCATAAATTGATATTGCCTCTGATCATAGTCAGACCAACATTGCTACGACCCGTATTCGCACCGACAC | -0.56 ± 0.069 | -0.708 ± 0.17
ACATTTGTTGATACACCCATAAATTGATAATTACAACCATAAGTTGATATTTTTCAGTGGGTATTTAACTATAACGCTCTGATCATAGTCAGACCAACATTGCTACGACCCGTATTCGCACCGACAC | 2.821 ± 0.028 | -0.128 ± 0.33
ACATTTGTTGATACACCCATAAATTGATAATTACAACCATATATTGATATCTCTCACAACCATAAAATGATAATTACTCTGATCATAGTCAGACCAACATTGCTACGACCCGTATTCGCACCGACAC | -0.825 ± 0.58 | -0.747 ± 0.26
ACATTTGTTGATACACCCATAAATTGATAATTACAACCATATATTGATATCTCTCACAACCATAAAGTGATATTTACTCTGATCATAGTCAGACCAACATTGCTACGACCCGTATTCGCACCGACAC | 0.11 ± 0.14 | -0.664 ± 0.34

— the supplement of paper PMC10201428
